What was measured:
[1] = molecular target: T1, cynomolgus monkey CD3 on cynomolgus monkey T cells (cynomolgus monkey, UniProt Q95LI5 22-198); assay: FACS on cynomolgus monkey T cells [B]
T1 construct: whole, on cells; CD3 complex on primary T cells
Protocol: To study the in vitro binding activity of the CD3 arm of the BCMA×CD3 bispecific antibody, human and cynomolgus monkey T cells were used for antibody binding experiments at cellular level. Briefly, the density of human and cynomolgus monkey T cells was adjusted to 1×10⁶ cells/mL, respectively. Cells were inoculated at 100 μL cells/well in a 96 well V-bottom plate (Corning, Cat#: 3894), followed by the addition of test antibodies at 100 μL/well, which is gradient diluted at 3 folds of the concentration with 2 folds of the final concentration. Cells were incubated at 4° C. for 1 hour in the dark. Afterwards, cells were washed twice with 100 μL/well of pre-cooled PBS, centrifuged at 500 g in 4° C. for 5 min, and followed by discarding the supernatant. 100 μL/fluorescent secondary antibody (Alexa Fluor 488-conjugated AffiniPure Goat Anti- Human IgG, Fcγ Fragment Specific, Jackson, Cat#:109-545-06, 1: 500 dilution) was added and incubated for 30 min at 4° C. in the dark. Cells were washed twice with 100 μL/well of pre-cooled PBS, centrifuged at 500 g, 4° C. for 5 min, and followed by discarding the supernatant. Finally, the cells were resuspended with 200 μL/well of pre-cooled PBS, and the fluorescence luminescence signal values were read by BD FACS CANTOII.

[2] = molecular target: T2, cynomolgus monkey BCMA on cells (HEK293T/cynoBCMA) (cynomolgus monkey, UniProt A0A2K5UD97 1-183); assay: FACS on HEK293T cell strain overexpressing cynomolgus monkey BCMA [B), (C]
T2 construct: whole, on cells
T2 sequence (A0A2K5UD97 entry or part of it): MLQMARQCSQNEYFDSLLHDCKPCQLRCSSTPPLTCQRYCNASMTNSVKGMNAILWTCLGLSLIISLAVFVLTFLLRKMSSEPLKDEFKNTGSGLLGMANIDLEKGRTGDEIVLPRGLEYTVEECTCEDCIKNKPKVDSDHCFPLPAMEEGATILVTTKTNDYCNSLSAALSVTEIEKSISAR

[3] = molecular target: T3, human BCMA on cells (HEK293T/huBCMA; NCI-H929) (human, UniProt Q02223 1-184); assay: FACS on HEK293T cell strain overexpressing human BCMA [C]
T3 construct: whole, on cells; also called human BCMA molecules on NCI-H929 cell line
T3 sequence (looked up): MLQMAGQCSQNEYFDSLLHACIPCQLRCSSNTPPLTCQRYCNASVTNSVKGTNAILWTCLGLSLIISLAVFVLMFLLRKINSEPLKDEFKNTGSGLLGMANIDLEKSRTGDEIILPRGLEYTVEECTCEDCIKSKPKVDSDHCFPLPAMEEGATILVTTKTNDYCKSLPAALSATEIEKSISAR
Excerpt: To study the in vitro binding activity of the BCMA arm of the BCMA×CD3 bispecific antibody, HEK293T cell strain overexpressing human BCMA (HEK293T/huBCMA) and HEK293T cell strain overexpressing cynomolgus monkey BCMA (HEK293T/cynoBCMA) were used for antibody binding experiments at cellular level. Briefly, HEK293T/huBCMA cells and HEK293T/cynoBCMA cells were digested and resuspended with DMEM complete medium. The cell density of the two was adjusted to 1×10⁶ cells/mL, respectively. Cells were inoculated at 100 μL cells/well in a 96 well V-bottom plate (Corning, Cat#: 3894), followed by the addition of test antibodies at 100 μL/well, which is gradient diluted at 3 folds of the concentration with 2 folds of the final concentration. Cells were incubated at 4° C. for 1 hour in the dark. Afterwards, the cells were washed twice with 100 μL/well of pre-cooled PBS, centrifuged at 500 g for 5 min at 4° C., and followed by discarding the supernatant. 100 μL/well of fluorescent secondary antibody (Alexa Fluor 488-conjugated AffiniPure Goat Anti-Human IgG, Fcγ Fragment Specific, Jackson, Cat#: 109-545-06, 1:500 dilution) was added and incubated for 30 min at 4° C. in the dark. […] Finally, the cells were resuspended with 200 μL/well of pre-cooled PBS, and the fluorescence luminescence signal values were read by BD FACS CANTOII. […]

[4] = molecular target: T3, human BCMA on cells (HEK293T/huBCMA; …); assay: FACS on NCI-H929 cell line [B]
Protocol: To study the binding activity of the BCMA arm of the BCMA×CD3 bispecific antibody to human BCMA, NCI-H929 cell line with highly expressed BCMA was used for binding experiments with human BCMA at cellular level. Briefly, NCI-H929 cell suspensions were collected. The cell density was adjusted to 1×10⁶ cells/mL, and the cells were inoculated in 96 well V-bottom plates at 100 μL cells/well (Corning, Cat#: 3894), followed by the addition of test antibodies at 100 μL/well, which is gradient diluted at 3 folds of the concentration with 2 folds of the final concentration. Cells were incubated at 4° C. for 2 hours in the dark. Afterwards, cells were washed twice with 100 μL/well of pre-cooled PBS, centrifuged at 500 g for 5 min at 4° C., and followed by discarding the supernatant. 100 μL/well of fluorescent secondary antibody (Alexa Fluor 488-conjugated AffiniPure Goat Anti-Human IgG, Fcγ Fragment Specific, Jackson, Cat#:109-545-06, 1:500 dilution) was added and incubated at 4° C. for 1 hour in the dark. Cells were washed twice with 100 μL/well of pre-cooled PBS, centrifuged at 500 g, 4° C. for 5 min, and followed by discarding the supernatant. Finally, the cells were resuspended with 200 μL/well of pre-cooled PBS, and the fluorescence luminescence signal values were read by BD FACS CANTOII.

T1 sequence (Q95LI5 22-198): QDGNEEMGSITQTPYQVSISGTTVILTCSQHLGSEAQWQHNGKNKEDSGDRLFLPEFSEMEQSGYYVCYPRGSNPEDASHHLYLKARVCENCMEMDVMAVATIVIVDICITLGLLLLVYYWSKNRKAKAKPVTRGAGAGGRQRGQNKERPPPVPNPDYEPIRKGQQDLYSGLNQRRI

B1: positive control 2, PR002199 (anti-BCMA (TNB308902) x CD3 (TNB_F2B) bispecific antibody) (bispecific antibody, human IgG1, kappa, L234A L235A)
heavy 1: EVQLVESGGGLVQPGRSLRLSCAASGFTFDDYAMHWVRQAPGKGLEWVSGISWNSGSIGYADSVKGRFTISRDNAKNSLYLQMNSLRAEDTALYYCAKDSRGYGDYRLGGAYWGQGTLVTVSSASTKGPSVFPLAPSSKSTSGGTAALGCLVKDYFPEPVTVSWNSGALTSGVHTFPAVLQSSGLYSLSSVVTVPSSSLGTQTYICNVNHKPSNTKVDKKVEPKSCDKTHTCPPCPAPEAAGGPSVFLFPPKPKDTLMISRTPEVTCVVVDVSHEDPEVKFNWYVDGVEVHNAKTKPREEQYNSTYRVVSVLTVLHQDWLNGKEYKCKVSNKALGAPIEKTISKAKGQPREPQVYTLPPCREEMTKNQVSLWCLVKGFYPSDIAVEWESNGQPENNYKTTPPVLDSDGSFFLYSKLTVDKSRWQQGNVFSCSVMHEALHNHYTQKSLSLSPGK
light: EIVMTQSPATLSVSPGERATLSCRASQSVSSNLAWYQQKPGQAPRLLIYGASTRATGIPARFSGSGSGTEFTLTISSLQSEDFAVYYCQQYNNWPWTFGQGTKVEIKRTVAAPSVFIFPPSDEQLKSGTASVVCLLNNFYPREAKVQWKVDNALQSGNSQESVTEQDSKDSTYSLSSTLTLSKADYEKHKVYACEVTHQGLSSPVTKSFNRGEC
heavy 2: EVQLLESGGGLVQPGGSLRLSCAASGFTVSSYGMSWVRQAPGKGPEWVSGIRGSDGSTYYADSVKGRFTISRDNSKNTLYLQMNSLRAEDTAVYYCAKQGENDGPFDHRGQGTLVTVSSGGGGSEVQLLESGGGLVQPGGSLRLSCAASGFTVSSYGMSWVRQAPGKGPEWVSGIRGSDGSTYYADSVKGRFTISRDNSKNTLYLQMNSLRAEDTAVYYCAKQGENDGPFDHRGQGTLVTVSSASEPKSSDKTHTCPPCPAPEAAGGPSVFLFPPKPKDTLMISRTPEVTCVVVDVSHEDPEVKFNWYVDGVEVHNAKTKPREEQYNSTYRVVSVLTVLHQDWLNGKEYKCKVSNKALGAPIEKTISKAKGQPREPQVCTLPPSREEMTKNQVSLSCAVKGFYPSDIAVEWESNGQPENNYKTTPPVLDSDGSFFLVSKLTVDKSRWQQGNVFSCSVMHEALHNHYTQKSLSLSPGK
notes: Three chains: HC1 (anti-CD3 heavy), LC (anti-CD3 kappa light), HC2 (two tandem anti-BCMA VH, then Fc)
For B1, the binding result [1] was “no binding (tested: about 300 nM)”, the binding result [2] was “no binding (tested: 100 nM)” and the EC50 [3] was 0.602 nM. It also gave an EC50 [4] of 8.7 nM.

— US20220340673A1 (HARBOUR BIOMED SUZHOU, published 2022)
